Holding throughout (test): SEC-MALS; 100 μl of purified protein injected at 12 mg/ml (high concentration); Superdex 200 10/300 GL, room temperature, 10 mM HEPES pH 7.4, 200 mM NaCl, 5 mM β-ME, 0.4 ml/min
(Size exclusion chromatography separates by hydrodynamic size, large species first.)

The target of experiment [1] is mutant α_(Y126F)β heterodimer of human NAD-dependent isocitrate dehydrogenase (human) (UniProt P50213).
In experiment [2] the target is mutant α_(Y126F)γ heterodimer of human NAD-dependent isocitrate dehydrogenase (human) (UniProt P50213).
The target of experiment [3] is αβ heterodimer of human NAD-dependent isocitrate dehydrogenase (human) (UniProt P50213).
The target in experiment [4] is αγ heterodimer of human NAD-dependent isocitrate dehydrogenase (human) (UniProt P50213).

Sequence of αβ heterodimer of human NAD-dependent isocitrate dehydrogenase (P50213 whole entry, looked up, one chain of several): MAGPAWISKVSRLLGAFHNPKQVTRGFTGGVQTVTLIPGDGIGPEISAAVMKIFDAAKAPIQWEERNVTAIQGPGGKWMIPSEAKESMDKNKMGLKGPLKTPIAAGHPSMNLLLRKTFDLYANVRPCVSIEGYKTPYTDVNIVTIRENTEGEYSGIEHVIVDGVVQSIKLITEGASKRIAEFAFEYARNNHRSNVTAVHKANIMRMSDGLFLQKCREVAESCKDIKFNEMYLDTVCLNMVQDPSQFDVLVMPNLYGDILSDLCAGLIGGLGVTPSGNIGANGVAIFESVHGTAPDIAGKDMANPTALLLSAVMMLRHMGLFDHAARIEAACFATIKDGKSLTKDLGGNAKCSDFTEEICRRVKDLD
Sequence of mutant α_(Y126F)β heterodimer of human NAD-dependent isocitrate dehydrogenase (P50213 whole entry, looked up, stated change not applied, one chain of several): as the sequence (P50213 whole entry, looked up, one chain of several) above

For orientation: stoichiometry N means a count of units in the complex or per binding partner. For “mutant α_(Y126F)β heterodimer of human NAD-dependent isocitrate dehydrogenase (from UniProt P50213 55-366) (complex)”, in experiment [1], the stoichiometry N was found to be 2.
“mutant α_(Y126F)γ heterodimer of human NAD-dependent isocitrate dehydrogenase (from UniProt P50213 55-366; P51553 40-393) (complex)”: in experiment [2], the stoichiometry N turned out to be 2.
The substance “αβ heterodimer of human NAD-dependent isocitrate dehydrogenase (from UniProt P50213 28-366) (complex)” returned a stoichiometry N in experiment [3] of 2.
For “αγ heterodimer of human NAD-dependent isocitrate dehydrogenase (from UniProt P50213 28-366; P51553 40-393) (complex)”, the stoichiometry N in experiment [4] turned out to be 2.
